Here are results for four molecules from publication PMC10397247.

For assay [1], the target named is T1, 4H796-bH.
T1 chain: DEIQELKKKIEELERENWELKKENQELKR
As to the kind of experiment: two-hybrid library CCNG1.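 Note: natural log of median RNA to DNA barcode read ratio; higher means stronger binding.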

Assay [2] has as its target T2, 4H949-bH.
T2 chain: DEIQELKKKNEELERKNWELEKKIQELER
Briefly: two-hybrid library CCNG1.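 Note: natural log of median RNA to DNA barcode read ratio; higher means stronger binding.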

For assay [3], the target named is T3, 4H932-bH.
T3 chain: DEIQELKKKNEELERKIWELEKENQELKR
As to the kind of experiment: two-hybrid library CCNG1.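 Note: natural log of median RNA to DNA barcode read ratio; higher means stronger binding.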

The target of assay [4] is T4, 4H63-AA.
T4 chain: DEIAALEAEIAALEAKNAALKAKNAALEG
As to the kind of experiment: two-hybrid library CCmax.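 Note: natural log of median RNA to DNA barcode read ratio; higher means stronger binding.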 Particulars: mean of both orientations.

Assay [5] deals with T5, 4H3915-AA.
T5 chain: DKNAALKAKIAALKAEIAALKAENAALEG
As to the kind of experiment: two-hybrid library CCmax.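 Note: natural log of median RNA to DNA barcode read ratio; higher means stronger binding.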 Particulars: mean of both orientations.

For assay [6], the target named is T6, 4H3619-AA.
T6 chain: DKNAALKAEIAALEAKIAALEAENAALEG
Briefly: two-hybrid library CCmax.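 Note: natural log of median RNA to DNA barcode read ratio; higher means stronger binding.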 As to conditions: mean of both orientations.

Assay [7] concerns the target T7, 4H3777-AA.
T7 chain: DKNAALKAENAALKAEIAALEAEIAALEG
Briefly: two-hybrid library CCmax. As to conditions: mean of both orientations.

The target in assay [8] is T8, 4H341-AA.
T8 chain: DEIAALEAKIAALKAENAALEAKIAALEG
Briefly: two-hybrid library CCmax. As to conditions: mean of both orientations.

Assay [9] addresses T9, 4H3449-AA.
T9 chain: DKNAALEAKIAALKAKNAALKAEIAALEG
As to the kind of experiment: two-hybrid library CCmax. Particulars: mean of both orientations.

Assay [10] concerns the target T10, 4H446-AA.
T10 chain: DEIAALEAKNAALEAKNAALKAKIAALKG
Briefly: two-hybrid library CCmax. As to conditions: mean of both orientations.

The target in assay [11] is T11, 4H380-AA.
T11 chain: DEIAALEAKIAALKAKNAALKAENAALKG
As to the kind of experiment: two-hybrid library CCmax. As to conditions: mean of both orientations.

Assay [12] deals with T12, 4H3629-AA.
T12 chain: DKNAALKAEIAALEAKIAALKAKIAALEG
Briefly: two-hybrid library CCmax. As to conditions: mean of both orientations.

The target in assay [13] is T13, 4H432-AA.
T13 chain: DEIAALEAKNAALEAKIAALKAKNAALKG
Briefly: two-hybrid library CCmax. As to conditions: mean of both orientations.

In assay [14] the target is T14, 4H324-AA.
T14 chain: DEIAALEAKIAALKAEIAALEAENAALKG
Briefly: two-hybrid library CCmax.

Assay [15] has as its target T15, 4H3974-AA.
T15 chain: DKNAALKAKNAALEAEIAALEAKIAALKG
As to the kind of experiment: two-hybrid library CCmax. As to conditions: mean of both orientations.

The target in assay [16] is T16, 4H478-AA.
T16 chain: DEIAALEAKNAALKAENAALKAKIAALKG
As to the kind of experiment: two-hybrid library CCmax. As to conditions: mean of both orientations.

The target of assay [17] is T17, 4H675-AA.
T17 chain: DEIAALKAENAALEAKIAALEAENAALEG
Briefly: two-hybrid library CCmax.

Assay [18] deals with T18, 4H3939-AA.
T18 chain: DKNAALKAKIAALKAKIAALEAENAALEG
As to the kind of experiment: two-hybrid library CCmax. Particulars: mean of both orientations.

Assay [19] concerns the target T19, 4H428-AA.
T19 chain: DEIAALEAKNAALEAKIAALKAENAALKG
As to the kind of experiment: two-hybrid library CCmax. Particulars: mean of both orientations.

Assay [20] has as its target T20, 4H3920-AA.
T20 chain: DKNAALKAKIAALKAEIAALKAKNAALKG
As to the kind of experiment: two-hybrid library CCmax. As to conditions: mean of both orientations.

The target in assay [21] is T21, 4H3417-AA.
T21 chain: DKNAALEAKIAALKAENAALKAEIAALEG
Briefly: two-hybrid library CCmax. Particulars: mean of both orientations.

For assay [22], the target named is T22, 4H971-AA.
T22 chain: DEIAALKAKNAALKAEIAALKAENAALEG
As to the kind of experiment: two-hybrid library CCmax. Particulars: mean of both orientations.

The target of assay [23] is T23, 4H3709-AA.
T23 chain: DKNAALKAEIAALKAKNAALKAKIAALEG
Briefly: two-hybrid library CCmax. As to conditions: mean of both orientations.

For assay [24], the target named is T24, 4H3591-AA.
T24 chain: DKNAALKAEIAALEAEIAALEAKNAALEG
As to the kind of experiment: two-hybrid library CCmax. Particulars: mean of both orientations.

Assay [25] addresses T25, 4H656-AA.
T25 chain: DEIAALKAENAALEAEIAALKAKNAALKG
Briefly: two-hybrid library CCmax. As to conditions: mean of both orientations.

The target in assay [26] is T26, 4H3446-AA.
T26 chain: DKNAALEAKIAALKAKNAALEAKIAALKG
As to the kind of experiment: two-hybrid library CCmax. Particulars: mean of both orientations.

Assay [27] deals with T27, 4H3628-AA.
T27 chain: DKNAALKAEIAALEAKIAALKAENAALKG
Briefly: two-hybrid library CCmax. As to conditions: mean of both orientations.

Assay [28] has as its target T28, 4H3666-AA.
T28 chain: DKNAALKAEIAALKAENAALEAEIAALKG
As to the kind of experiment: two-hybrid library CCmax. As to conditions: mean of both orientations.

In assay [29] the target is T29, 4H391-AA.
T29 chain: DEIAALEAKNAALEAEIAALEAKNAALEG
As to the kind of experiment: two-hybrid library CCmax. As to conditions: mean of both orientations.

Assay [30] deals with T30, 4H497-AA.
T30 chain: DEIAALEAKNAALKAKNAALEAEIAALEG
Briefly: two-hybrid library CCmax. As to conditions: mean of both orientations.

The target of assay [31] is T31, 4H3121-AA.
T31 chain: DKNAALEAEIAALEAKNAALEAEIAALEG
Briefly: two-hybrid library CCmax.

For assay [32], the target named is T32, 4H741-bN.
T32 chain: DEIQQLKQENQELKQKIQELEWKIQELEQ
Briefly: two-hybrid library CCNG1.

Assay [33] deals with T33, 4H932-bN.
T33 chain: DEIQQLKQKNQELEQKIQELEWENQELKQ
Briefly: two-hybrid library CCNG1.

Assay [34] deals with T34, 4H477-bN.
T34 chain: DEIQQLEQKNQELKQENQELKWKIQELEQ
Briefly: two-hybrid library CCNG1.

Assay [35] deals with T35, 4H492-bN.
T35 chain: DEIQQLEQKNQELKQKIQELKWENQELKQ
As to the kind of experiment: two-hybrid library CCNG1.

Regarding DEIQELKKKIEELERENWELKKENQELKR [4H796-bH], the values for the interaction score in assay [1], in assay [2] and in assay [3] were 1.25, -0.00426 and -0.89, respectively.

Consider DEIAALEAKIAALKAEIAALEAENAALKG [4H324-AA], for which the interaction score is -0.0237 in assay [4]; 0.128 in assay [5]; 1.47 in [6]; -1.37 in assay [7]; -0.39 in [8]; -1.69 in assay [9]. Further, the interaction score in [10] is -1.06; in [11], 0.833; in assay [12], 1.36; in assay [13], -0.834; in [14] it was 1.11; in assay [15], 1.2.

In the case of DKNAALEAEIAALEAKNAALEAEIAALEG [4H3121-AA], the interaction score in assay [16] is -0.966; in assay [17], -2.08; in assay [18], -1.9; in [19], -0.865; in [20] it was -1.06; in [21], -1.39. Moreover, the interaction score in [22] is -1.39; in assay [23] it was -0.104; in assay [24], -1.55; in [25], -1.6; in assay [26], 1.8; in assay [27] it was -1.32. In addition, the interaction score in assay [28] was -0.746; in assay [29] it was -1.89; in assay [30] it was -1.74; in assay [31] it was -1.24.

As to DEIQQLEQKNQELKQENQELKWKIQELEQ [4H477-bN], the interaction score is -1.17 in assay [32], -0.0984 in assay [33], -1.14 in assay [34] and -0.94 in assay [35].
